IntAct's records for PubMed 16328881

B1: Minichromosome maintenance protein 10 (Saccharomyces cerevisiae), P32354 (parent)
chain: MNDPREILAVDPYNNITSDEEDEQAIARELEFMERKRQALVERLKRKQEFKKPQDPNFEAIEVPQSPTKNRVKVGSHNATQQGTKFEGSNINEVRLSQLQQQPKPPASTTTYFMEKFQNAKKNEDKQIAKFESMMNARVHTFSTDEKKYVPIITNELESFSNLWVKKRYIPEDDLKRALHEIKILRLGKLFAKIRPPKFQEPEYANWATVGLISHKSDIKFTSSEKPVKFFMFTITDFQHTLDVYIFGKKGVERYYNLRLGDVIAILNPEVLPWRPSGRGNFIKSFNLRISHDFKCILEIGSSRDLGWCPIVNKKTHKKCGSPINISLHKCCDYHREVQFRGTSAKRIELNGGYALGAPTKVDSQPSLYKAKGENGFNIIKGTRKRLSEEEERLKKSSHNFTNSNSAKAFFDEKFQNPDMLANLDNKRRKIIETKKSTALSRELGKIMRRRESSGLEDKSVGERQKMKRTTESALQTGLIQRLGFDPTHGKISQVLKSSVSGSEPKNNLLGKKKTVINDLLHYKKEKVILAPSKNEWFKKRSHREEVWQKHFGSKETKETSDGSASDLEII

Variants of: B1
Conditions: with sir2_yeast SIR2, P06700
Sequence of sir2_yeast SIR2, P06700 (P06700 whole entry): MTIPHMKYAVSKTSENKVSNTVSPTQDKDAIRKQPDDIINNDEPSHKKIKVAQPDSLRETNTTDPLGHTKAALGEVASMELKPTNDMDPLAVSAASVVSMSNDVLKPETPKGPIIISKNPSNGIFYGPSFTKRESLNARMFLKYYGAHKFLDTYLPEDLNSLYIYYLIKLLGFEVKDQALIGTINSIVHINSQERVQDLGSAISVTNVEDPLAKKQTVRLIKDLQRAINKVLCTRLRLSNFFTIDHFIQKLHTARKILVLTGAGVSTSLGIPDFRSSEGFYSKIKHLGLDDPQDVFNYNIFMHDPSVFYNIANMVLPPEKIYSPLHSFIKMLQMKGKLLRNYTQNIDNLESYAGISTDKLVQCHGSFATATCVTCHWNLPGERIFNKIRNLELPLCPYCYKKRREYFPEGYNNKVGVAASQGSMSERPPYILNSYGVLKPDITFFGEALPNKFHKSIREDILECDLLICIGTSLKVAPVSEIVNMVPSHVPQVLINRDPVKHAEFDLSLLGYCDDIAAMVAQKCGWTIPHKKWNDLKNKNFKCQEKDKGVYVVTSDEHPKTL

effect of a mutation on the interaction	Variant
disrupting interaction strength	P269L

Variants of: B1
Conditions: with sir3_yeast SIR3, P06701
Sequence of sir3_yeast SIR3, P06701 (P06701 whole entry): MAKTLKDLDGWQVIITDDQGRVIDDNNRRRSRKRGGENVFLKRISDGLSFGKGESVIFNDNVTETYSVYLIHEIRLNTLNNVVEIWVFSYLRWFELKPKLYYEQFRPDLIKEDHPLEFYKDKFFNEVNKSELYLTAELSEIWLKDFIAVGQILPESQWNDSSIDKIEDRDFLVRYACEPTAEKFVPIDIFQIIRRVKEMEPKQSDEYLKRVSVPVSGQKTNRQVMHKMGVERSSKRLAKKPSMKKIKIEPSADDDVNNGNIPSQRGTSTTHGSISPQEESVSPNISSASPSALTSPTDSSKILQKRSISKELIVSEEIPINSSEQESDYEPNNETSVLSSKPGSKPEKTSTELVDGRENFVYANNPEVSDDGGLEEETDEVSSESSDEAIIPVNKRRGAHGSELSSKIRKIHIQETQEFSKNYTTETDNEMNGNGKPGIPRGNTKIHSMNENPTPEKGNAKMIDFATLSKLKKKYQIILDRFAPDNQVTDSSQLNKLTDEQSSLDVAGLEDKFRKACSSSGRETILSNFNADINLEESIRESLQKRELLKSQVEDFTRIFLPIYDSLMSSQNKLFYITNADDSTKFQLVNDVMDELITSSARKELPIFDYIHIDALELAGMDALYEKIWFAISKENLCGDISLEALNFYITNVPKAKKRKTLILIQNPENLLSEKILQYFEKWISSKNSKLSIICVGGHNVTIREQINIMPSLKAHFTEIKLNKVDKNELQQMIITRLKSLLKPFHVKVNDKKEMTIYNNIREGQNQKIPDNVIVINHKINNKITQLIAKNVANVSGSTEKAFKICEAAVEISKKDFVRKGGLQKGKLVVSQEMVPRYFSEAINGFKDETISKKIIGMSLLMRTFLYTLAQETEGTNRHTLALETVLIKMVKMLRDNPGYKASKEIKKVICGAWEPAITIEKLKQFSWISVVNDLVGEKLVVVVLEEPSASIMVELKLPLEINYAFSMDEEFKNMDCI

effect of a mutation on the interaction	Variant
disrupting interaction strength	P269L
disrupting interaction strength	C320Y
